Laboratory results as given in the nanobody polyreactivity screen of Harvey et al. (2022).

assay: yeast display, Sf9 membrane polyspecificity reagent, FACS + sequencing; frameworks hold sequencing errors
Procedure, shortened: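 Genes from sorted yeast were amplified by colony PCR, read by MiSeq 2 × 250 sequencing and filtered on CDR length. These cells carried a synthetic nanobody library in Saccharomyces cerevisiae BJ5465 and were sorted by FACS into low and high (top ~1%) gates on anti-HA and streptavidin fluorescence. Polyreactivity is labelled according to the gate of origin.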

Sequence	polyreactivity (PSR sort gate)
QVQLVESGGGLVQAGGSLRLSCAASGITFVRNAMGWYRQAPGKEREFVAAISRSGTTTYYADSVKGRFTISRDNAKNTVYLQMNSLKPEETAVYYCAAVRWVRYRTSAYEYWGQGTQVTVSS	high polyreactivity
QFQLVESGGGLVQAGGSLRLSCAASGFIFSFYAMGWYRQAPGKERELVARINWTGGSTYYADSVKGRFTISRDNAKNSVYLQMNSLKPEDTAVYYCARPVRRIIGVTDEYWGQGTQVTVSS	low polyreactivity
QVQLVESGGGLVQAGGSLRLSCGASGRTFGHYDLGLYRQEPGTEREFVANIRQSTGSTDYADSVKGRFTISRDNAKITVYLQMNSLKPEDTEVYYCASPWYYYVEHRQGSYILDYWGQGTQVTVSS	low polyreactivity
QVQLVESGGGLVQAGGSLRLSCAPSGSTFRVYGMGWYRQAPGKETELVAVIRWRGGRTSYADSVKGRFTISRDNAKNTVYLQMNSLKPEDTAVYYCAAAYWNDWSQYDYWGQGTQVTVSS	high polyreactivity
QVQLVESGGGLVQAGGSLRLSCAASGFTFRAYAMGWYRQAPGKERELVATITRSGGSTFYADSVKGRFTISRDNAKNTVYLQMNSLKPEDTAVYYCAAVYRFAFRYAWYKYDYWGQGTQVTVSS	high polyreactivity
QVQLVESGGGLVQAGGSLRLSCAAYGRTFGLNAMGWYRQAPGKERELVAAISSSGGSTYYADSVKGRFTISRDNAKNTVYLQMNSLKPEDTAVYYCARVPLHRYGYWGQGTQVNVSS	high polyreactivity
QVQLVESGGGLVQAGGSLRLSCAASGYIFSGYAMGWYRQAPGKERELVAAISSNGGSTYYADSVKGRFTISRDNAKNTVYLQMNSLKPEDTAVYYCNRGLAARVGRGDYWGQGTQVTVSS	low polyreactivity
QVQLVESGGGLVQAGGSLRLSCAASGNTFFLYAMGWYRQAPGKERELVAVISASGGSTYFADSVKGRFTISRDNAKNTVYLQMNSVKPEDTAVYYCAKTPRTYYRYRNAFHYYYWGQGTQVTVSS	high polyreactivity
QVQLVESGGGLVQAGGSLRLSCAASGSTFQINAMGWYRQAPGKEREFVAAITVSSGSTYYADSVKGRFTISRDNAKNTVYLQMNSLKPEDTAVYYCAAEFHWWYAGYDYGYWGQGTQVTVSS	low polyreactivity
QVQLVESGGGLVQAGGSLRLSCAASGFTFYGYAMGWYRQAPGKDRELVARITVRGSTTYYADSVKGRFTISRDNAKNTVYLQMNSLKPEDTAFYYCNASWVYSRFRPLDYDLDYWGQGTQVTVSS	low polyreactivity
QVQLVDSGGGLVQAGGSLPLSCAASGRIIAHYALGWYRQAPGKERELVAAIRRSGVSTYYADSVKGRFTISRDNANNTVYLQMHSLKPEDTAVYYCNARAYVSPYDYWGHGTQVTVSS	low polyreactivity
QVQLVESGGGLVQAGGSLRLSCAASGRTVYSYAMGWYRQAPGKERELVAAISYTGASTFYADSVKGRFTISRDNAKNTVYLQMNSLKPEDTAVYYCAAESQPSYGETDEYWGQGTQVTVSS	high polyreactivity
QVQLVESGGGLVQAGGSLRLSCAASGRTFAPNTMGWYRQAPGKERELVATITVSGGITYADSVKGRFTISRDNAKNTVYLQMNSLKPEDTAVYYCAARTPGWYLPRDYWGQGTQVTVSS	low polyreactivity
QVQLVESGGGLVQAGGSLRLSCAASGSTFSYYTMGWYRQAPGKERELVAAISFSGGSTYYADSVKGRFTISRDNAKNTVYLQMNSLKPEDTAVYYCAAKGYVGRYDYWGQGTQVTVSS	high polyreactivity
QVQLVESGGGLVQAGGSLRLSCAASGRTFYPYAMGWYRQAPGKERELVAAINWRDGSTYYADSVKGRFTISRDNAKNTVYLQMNSLKPEDTAVYYCAADYYWWQYDYWGQGTQVTVSS	high polyreactivity
QVQIVESGGGLVQAGGSLRLSCAASGLTFYQNAMGWYRQAPGKERELVAAITRSGGSTYYADSVKGRFTISRDNAKNTVYLQMNSLKPEDTAVYYCAARGGLSRRYEYWGQGTQVTVSS	high polyreactivity
QVQLLESGGGLVQAGGSLRLSCAASGRTFWAYAMGWYRQAPGKERELVAAIDGGDGSTYYADSVKGRFTISRDYAKNTVYLQMNSLKPEDTAVYYCAAETPSGYYPQQYDYYLGQGTQVTVSS	high polyreactivity
QVQLVESGGGLVQAGGSLRLSCAASGSTFNTYVMGWYRQAPGKERELVAAISSSGGTTYYADSVKGRFTISRDNAKNTVYLQMNSLKPEDTAVYYCNAVPKYGSRLYRYGYWGQGTQVTVSS	high polyreactivity
QVQLVESGGGLVQAGGSLRLSCAASGSIFSSYAMGWYRQAPGKERELVASISRRGGSTYYADSVKGRFTISRDNAKNTVYLQMNSLKPEDTAVYYCNASGGPYRYYYWGQGTQVTVSS	low polyreactivity
QVQLVESGGRLVQAGGSLSLSCASSGRIFWTYAMGLTRQAPGEERELVAAINSSDGTYYADSVKGRFTISRDNAKNTVYLQKNSLKPEDTAVYYCNADRDALVGYDYDYWGQGTQVTVSS	low polyreactivity
QVQLVESGGGLVQAGGSLRLSCAASGGTFEYYPMGWYRQAPGKETEMVAGITWGGVSTYYADSVKGRFTLSRDTAKNTVYLQMNSLKPEDTSVFYCAAAYSQDNVWWYYYWGQGTQVTVSS	high polyreactivity
QVQLVESGGGLVQAGGSLLLSCAASGYTFKSYVMGWYRQAPGKERELVAAITSIGGSTYYADSVKGRFTISRDNAKNNVYLQMNSLKPEDTALYYCAKYPGISGYNYWGQGTQVTVSS	high polyreactivity

Sequence	polyreactivity (PSR sort gate)
QVQLVESGGGLVQAGGSLRLSCAASGSIFLTNAMGWYRQAPGKEREFVAAIDWGGTITYYADSVKGRFTISRDNAKNTVYLQMNSLKPEDTAVYYCAADPTYPYGYWGQGTQVTVSS	low polyreactivity
QLQLVESGGGLVKAGGSLRLSCAASGFIFNCYAMGWNRQAPVKEREMVARISRSGGSTYYADSVKGRFTISRDNAKNTVYLQMNSLKPEDTAVYYCAADYYWSLHQRMDYWGQGTQVTVSS	high polyreactivity
QVQLVESGGGLVQAGGSLRLSCAASGSTFDNYAMGWYRQAPGKERELVAAINSRGGRTYYADSVKGRFTISRDNAKNTVYLQMNSLKPDDTAVYYCAAVGATHRFDYWGQGTQVTVSS	high polyreactivity
QVQLVESCGGLVQAGGSLRLICAASGRNFGHNAMGWYRQAPGKEREFVAAITYSGVRTFFADSVKGRFTISRDNAKNTVYLQMNCLKPEDTAVYYCATDWRRYYDYWGQGTQVTVSS	low polyreactivity
QVQLVESAGGLVQAGGSLRLSCAASGRNFVDYAMGWYRQAPGKERELVAAITQRGGSTYYADSVKGRFTISRDNAKNTVYLQMNSLKPEDTAVYYCAAVTRFYTKYYWGQGTQVTVSS	high polyreactivity
QVQLVESGGGLVQAGGSLRLSCAASGNTFGTYVMGWYRPAPGKERELVAAISQSGGSTDYADSVKGRFTISRDNAKYTVYLQMNSLKPEETAVYYCAKVTWGTVWYRSPSEYDYWGQGTQVTVSS	low polyreactivity
QVQLVESGGGLVQAGGSLRLSCAASGSTFKYYAMGWYRQAPGKERELVAAISSGGSTYYADSVKGRFTISRDNAKNTVYLQMNSLKPEDTAVYYCAARGYYGKFSGSGYWGQGTQVTVSS	high polyreactivity
QVQLVESGGGLVQAGGSLSLSCAATGSTFAQNAMGWYRQAPGKERELVAAISRRGGSTYYADSVKGRFTISRDNAKNTVYVQMNSLKPEDTAVYYCAADQPVRQHHRDDYWGQGTQVTVSS	low polyreactivity
QVQLQESGGGLVQAGGSLRLTCAASGSISYPRTMGWYRQAPGKEREFVAGIGVGGTTYYADSVKGRYTISRDNAKNTVYLQMNSLKPEHAAVDYCAVAAYYDKYYVYWGQGTQVTVSC	low polyreactivity
QVQLVESGGGLVQAGGSLRLSCAASGSTFNWNAMGWYRQAPGKERELVAAISRSGGRTSYADSVKGRFTISRDNAKNTVYLQMNSLKPEDTAVYYCAAEKVGTRPSRDYDYWGQGTQVTVSS	high polyreactivity
QVQLVESGGGLVEAGGSLRLSCAASGSIFAVNTMGWYRKAPGKERELVASITRGGSTNYADSVKGRFAISRDNAKKSVYLQMNSQKPEDSAVYYCAARPTWWYDYWGQGNQVTVSS	high polyreactivity
QVQLVESGGGLVQEGRSLRLSCAASGRIFCFNVMGWYRQAPGKERELVATISGRTGSTYYADSVKGRFTISRDNAKNTVYLQMNSLKPEVTAVYYCNAVRTVNDYHYDYWGQVTQVTVSS	high polyreactivity
QVQLVESVVGLVQAGGSLRLSSAASGRIFNQYGMGWYRQSPGKESELVAAIRSGDSTNYADSVKGRFTISRDNAKNTVYLQMNSLKPEDTAVYYCARDLPGDYAGFDYWGQGTQVTVSS	low polyreactivity
QVQLVESGGGLVQAGGSLRLSCAASGRTFLYNAMGWYRQAPGKERELVAAISGRGGRTYYADSVKGRFTISRDNAKNTVYLQMNSLKPEDTAVYYCAASQYYRWVIGYDFEYDYWGQGTQVTVSS	high polyreactivity
QVQLVESGGGLVQAGGSLRLSCAASGFIFRFYAMGWYRQAPGKERELVAAISSDGSTNYADSVKGRFTISRDNAKNTVYLQMNSLKPEDTAVYYCNADYYEYYSGPTLVVYIYGYWGQGTQVTVSS	low polyreactivity
QVQLVESGGGLVQAGGSLRLSCAASGRIFAFNAMGWYRQAPGKERELVADITSSGVNTYYADSVKGRFTISRDNAKNTVYLQMNSLKPEDTAVYYCAARSYLRWWVGMEYCGQGTQVTVSS	low polyreactivity
QVHLVESGGGLVQAGGSLRLSCAASGSTLYRYAMGWYRQAPGKERELVATITRSGGSTYYADSVKGRFTISRDNAKNTVYLQINSLKPEDTAVYYCDAYRKVGGFSRGDYWGQGTKVTVSS	high polyreactivity
QVQLVESGGGLVQAGGSLRLSCAASGFTFVYYAMGWYRQAPGKERELVAAISSGGRTYYADSVKGRFTISRDNAKNTVYLQMNSLKPEDTAGYYCNKKVGSYYRSYYYWGQGTQVTVSS	high polyreactivity
QVQLVESGGGLVQAGGSLRLSCAASGSIFLVYSMGWYRQAPGKERELVAGITSDDSTNYADSVKGRFTISRDNAKNTVYLQMNSLKPEDTAVYYCAKDSLVWYIVDLGYWGQGTQVTVSS	low polyreactivity
QVQLVESGGGLVQAGGSLRLSCAASGSIFYYNAMGWYRQEPGKERELVATITSAVSTNYADSVKGRFTISRDNAKNTVYLQMNSLKPQDTAVYYCAADDYQVQYDYWGQGTQVTVSS	low polyreactivity
QVQLVQSGGGLVQAGGSLRLSCAASGTTFNRNAMGWYRQAPGKEMELVDTITSAGSTYYADSVKGRFTISLDNAKNTVYLHMNSLKPEDTAVYYCAKGHQPGHVFHQEYGYYYWGQGTQGTVSS	low polyreactivity
